B1: Zyxin (Homo sapiens), Q15942 (parent)
chain: MAAPRPSPAISVSVSAPAFYAPQKKFGPVVAPKPKVNPFRPGDSEPPPAPGAQRAQMGRVGEIPPPPPEDFPLPPPPLAGDGDDAEGALGGAFPPPPPPIEESFPPAPLEEEIFPSPPPPPEEEGGPEAPIPPPPQPREKVSSIDLEIDSLSSLLDDMTKNDPFKARVSSGYVPPPVATPFSSKSSTKPAAGGTAPLPPWKSPSSSQPLPQVPAPAQSQTQFHVQPQPQPKPQVQLHVQSQTQPVSLANTQPRGPPASSPAPAPKFSPVTPKFTPVASKFSPGAPGGSGSQPNQKLGHPEALSAGTGSPQPPSFTYAQQREKPRVQEKQHPVPPPAQNQNQVRSPGAPGPLTLKEVEELEQLTQQLMQDMEHPQRQNVAVNELCGRCHQPLARAQPAVRALGQLFHIACFTCHQCAQQLQGQQFYSLEGAPYCEGCYTDTLEKCNTCGEPITDRMLRATGKAYHPHCFTCVVCARPLEGTSFIVDQANRPHCVPDYHKQYAPRCSVCSEPIMPEPGRDETVRVVALDKNFHMKCYKCEDCGKPLSIEADDNGCFPLDGHVLCRKCHTARAQT

Variants of: B1
Details: with enah_human ENAH

Variant	effect of a mutation on the interaction
MAAPRPSPAISVSVSAPAFYAPQKKFGPVVAPKPKVNPFRPGDSEPPPAPGAQRAQMGRVGEIPPPPPEDAPLPPPPLAGDGDDAEGALGGAAPPPPPPIEESFPPAPLEEEIFPSPPPPPEEEGGPEAPIPPPPQPREKVSSIDLEIDSLSSLLDDMTKNDPFKARVSSGYVPPPVATPFSSKSSTKPAAGGTAPLPPWKSPSSSQPLPQVPAPAQSQTQFHVQPQPQPKPQVQLHVQSQTQPVSLANTQPRGPPASSPAPAPKFSPVTPKFTPVASKFSPGAPGGSGSQPNQKLGHPEALSAGTGSPQPPSFTYAQQREKPRVQEKQHPVPPPAQNQNQVRSPGAPGPLTLKEVEELEQLTQQLMQDMEHPQRQNVAVNELCGRCHQPLARAQPAVRALGQLFHIACFTCHQCAQQLQGQQFYSLEGAPYCEGCYTDTLEKCNTCGEPITDRMLRATGKAYHPHCFTCVVCARPLEGTSFIVDQANRPHCVPDYHKQYAPRCSVCSEPIMPEPGRDETVRVVALDKNFHMKCYKCEDCGKPLSIEADDNGCFPLDGHVLCRKCHTARAQT [F71A;F93A]	decreasing interaction
MAAPRPSPAISVSVSAPAFYAPQKKFGPVVAPKPKVNPFRPGDSEPPPAPGAQRAQMGRVGEIPPPPPEDAPLPPPPLAGDGDDAEGALGGAFPPPPPPIEESFPPAPLEEEIFPSPPPPPEEEGGPEAPIPPPPQPREKVSSIDLEIDSLSSLLDDMTKNDPFKARVSSGYVPPPVATPFSSKSSTKPAAGGTAPLPPWKSPSSSQPLPQVPAPAQSQTQFHVQPQPQPKPQVQLHVQSQTQPVSLANTQPRGPPASSPAPAPKFSPVTPKFTPVASKFSPGAPGGSGSQPNQKLGHPEALSAGTGSPQPPSFTYAQQREKPRVQEKQHPVPPPAQNQNQVRSPGAPGPLTLKEVEELEQLTQQLMQDMEHPQRQNVAVNELCGRCHQPLARAQPAVRALGQLFHIACFTCHQCAQQLQGQQFYSLEGAPYCEGCYTDTLEKCNTCGEPITDRMLRATGKAYHPHCFTCVVCARPLEGTSFIVDQANRPHCVPDYHKQYAPRCSVCSEPIMPEPGRDETVRVVALDKNFHMKCYKCEDCGKPLSIEADDNGCFPLDGHVLCRKCHTARAQT [F71A]	decreasing interaction

Continued, values first:

effect of a mutation on the interaction	Variant
decreasing interaction	MAAPRPSPAISVSVSAPAFYAPQKKFGPVVAPKPKVNPFRPGDSEPPPAPGAQRAQMGRVGEIPPPPPEDAPLPPPPLAGDGDDAEGALGGAAPPPPPPIEESAPPAPLEEEIFPSPPPPPEEEGGPEAPIPPPPQPREKVSSIDLEIDSLSSLLDDMTKNDPFKARVSSGYVPPPVATPFSSKSSTKPAAGGTAPLPPWKSPSSSQPLPQVPAPAQSQTQFHVQPQPQPKPQVQLHVQSQTQPVSLANTQPRGPPASSPAPAPKFSPVTPKFTPVASKFSPGAPGGSGSQPNQKLGHPEALSAGTGSPQPPSFTYAQQREKPRVQEKQHPVPPPAQNQNQVRSPGAPGPLTLKEVEELEQLTQQLMQDMEHPQRQNVAVNELCGRCHQPLARAQPAVRALGQLFHIACFTCHQCAQQLQGQQFYSLEGAPYCEGCYTDTLEKCNTCGEPITDRMLRATGKAYHPHCFTCVVCARPLEGTSFIVDQANRPHCVPDYHKQYAPRCSVCSEPIMPEPGRDETVRVVALDKNFHMKCYKCEDCGKPLSIEADDNGCFPLDGHVLCRKCHTARAQT [F71A;F93A;F104A]
decreasing interaction	MAAPRPSPAISVSVSAPAFYAPQKKFGPVVAPKPKVNPFRPGDSEPPPAPGAQRAQMGRVGEIPPPPPEDFPLPPPPLAGDGDDAEGALGGAAPPPPPPIEESFPPAPLEEEIFPSPPPPPEEEGGPEAPIPPPPQPREKVSSIDLEIDSLSSLLDDMTKNDPFKARVSSGYVPPPVATPFSSKSSTKPAAGGTAPLPPWKSPSSSQPLPQVPAPAQSQTQFHVQPQPQPKPQVQLHVQSQTQPVSLANTQPRGPPASSPAPAPKFSPVTPKFTPVASKFSPGAPGGSGSQPNQKLGHPEALSAGTGSPQPPSFTYAQQREKPRVQEKQHPVPPPAQNQNQVRSPGAPGPLTLKEVEELEQLTQQLMQDMEHPQRQNVAVNELCGRCHQPLARAQPAVRALGQLFHIACFTCHQCAQQLQGQQFYSLEGAPYCEGCYTDTLEKCNTCGEPITDRMLRATGKAYHPHCFTCVVCARPLEGTSFIVDQANRPHCVPDYHKQYAPRCSVCSEPIMPEPGRDETVRVVALDKNFHMKCYKCEDCGKPLSIEADDNGCFPLDGHVLCRKCHTARAQT [F93A]

Variants of: B1
Details: with enah_mouse Enah

effect of a mutation on the interaction	Variant
disrupting interaction	MAAPRPSPAISVSVSAPAFYAPQKKFGPVVAPKPKVNPFRPGDSEPPPAPGAQRAQMGRVGEIPPPPPEDAPLPPPPLAGDGDDAEGALGGAFPPPPPPIEESFPPAPLEEEIFPSPPPPPEEEGGPEAPIPPPPQPREKVSSIDLEIDSLSSLLDDMTKNDPFKARVSSGYVPPPVATPFSSKSSTKPAAGGTAPLPPWKSPSSSQPLPQVPAPAQSQTQFHVQPQPQPKPQVQLHVQSQTQPVSLANTQPRGPPASSPAPAPKFSPVTPKFTPVASKFSPGAPGGSGSQPNQKLGHPEALSAGTGSPQPPSFTYAQQREKPRVQEKQHPVPPPAQNQNQVRSPGAPGPLTLKEVEELEQLTQQLMQDMEHPQRQNVAVNELCGRCHQPLARAQPAVRALGQLFHIACFTCHQCAQQLQGQQFYSLEGAPYCEGCYTDTLEKCNTCGEPITDRMLRATGKAYHPHCFTCVVCARPLEGTSFIVDQANRPHCVPDYHKQYAPRCSVCSEPIMPEPGRDETVRVVALDKNFHMKCYKCEDCGKPLSIEADDNGCFPLDGHVLCRKCHTARAQT [F71A]

Reference: IntAct's records for PubMed 10801818
